System: primary fetal endothelial cells (ECs) isolated from rat brains
Assay: Trans-endothelial electrical resistance (TEER) of endothelial cell monolayer after oxygen glucose deprivation (OGD)
Type: cell-based
Experimental: To assess whether the effects on the BBB integrity are mediated by Annexin A1, we used a recognized model for BBB integrity of primary fetal endothelial cells (ECs) isolated from rat brains at postnatal day 3.
A cellular monolayer of endothelial cells (ECs) was cultured on semipermeable filter inserts (Transwell, 3460 Corning). Trans-endothelial electrical resistance (TEER) was measured as an established quantitative readout for barrier integrity as described before (Srinivasan et al., J. Lab Autom. 2015 (2) 107-126) using an Epithelial Voltohmmeter (EVOM2) with two chopstick electrodes, each containing a silver-silver chloride pellet for measuring voltage and a silver pellet for passing current. Measurements of the resistance in ohm (Ω) across the cell layer were made on the semipermeable membrane by placing one electrode in the upper compartment and the other electrode in the lower compartment. Measurements were performed in duplicate per insert and consistently conducted for several days, 30 minutes after culture media was changed and temperature was kept at 37° C. before and between all measurements. […]
Subsequently TEER was measured in all groups at 1 hour, 3 hours, 6 hours, 12 hours and 24 after normoxia/OGD. […]
At 0 hour, baseline TEER measurements were taken before initiation of OGD. […] TEER in ohms was measured 3 h, 6 h, 12 h and 24 h after treatment. […]

B1: Annexin A1 (protein, UniProt P04083 2-346, looked up)
Annexin A1: AMVSEFLKQAWFIENEEQEYVQTVKSSKGGPGSAVSPYPTFNPSSDVAALHKAIMVKGVDEATIIDILTKRNNAQRQQIKAAYLQETGKPLDETLKKALTGHLEEVVLALLKTPAQFDADELRAAMKGLGTDEDTLIEILASRTNKEIRDINRVYREELKRDLAKDITSDTSGDFRNALLSLAKGDRSEDFGVNEDLADSDARALYEAGERRKGTDVNVFNTILTTRSYPQLRRVFQKYTKYSKHDMNKVLDLELKGDIEKCLTAIVKCATSKPAFFAEKLHQAMKGVGTRHKALIRIMVSRSEIDMNDIKAFYQKMYGISLCQAILDETKGDYEKILVALCGGN
notes: recombinant Annexin A1 protein, preferably of human origin, obtained commercially
**Q.** For B1, which TEER plateau value (fetal rat brain ECs on Transwell, 4 h OGD then treatment with Annexin A1 3 μM, plateau from 12 h onwards, baseline approx. 150 ohms per insert) is on record?
**A.** 130 ohms

**Q.** What about the “effect on endothelial resistance / barrier integrity following OGD” value (fetal rat brain ECs, 4 h OGD, Annexin A1 3 μM) of the same molecule?
**A.** restores the endothelial resistance and/or barrier integrity
